From article PMC2797608 come the findings set out here.

The test deals with methyltransferase domain of human GLP (residues 951-1235) (human). Briefly: not stated; affinity of GLP for H3 peptides; the method of the affinity is not told; the methods describe only a SAHH-coupled kinetic assay of GLP (Km, kcat; peptide 2 uM to 4 mM, 70 uM SAM, room temperature, 25 mM potassium phosphate pH 8).

The substance H3K9 peptide trimethylated at lysine 4 showed a decrease in affinity against the peptide not methylated at K4 of 43%.
